{"source": "patent US20170107258", "key": {"[1]": {"tested_on": "T1, cyclic peptide P1, c(RLsKDK), cyclo(Arg-Leu-{β-Ser}-Lys-Asp-Lys)", "T1 sequence": "RLSKDK"}, "[2]": {"tested_on": "T2, cyclic peptide P2, c(rLSKDK)", "T2 sequence": "RLSKDK"}, "[3]": {"tested_on": "T3, cyclic peptide P3, c(RlSKDK)", "T3 sequence": "RLSKDK"}}, "data": [{"substance": "purified recombinant ADAM8", "values": [{"measurement": "ADAM8 proteolytic activity, fluorogenic CD23 peptide, peptides at 100 nM", "setting": "[1]", "result": "cyclic peptide P1 showed the most marked inhibition"}, {"measurement": "ADAM8 proteolytic activity, fluorogenic CD23 peptide, peptides at 100 nM", "setting": "[2]", "result": "Cyclic peptides P2 and P3 showed inhibition of ADAM8 proteolytic activity"}, {"measurement": "ADAM8 proteolytic activity, fluorogenic CD23 peptide, peptides at 100 nM", "setting": "[3]", "result": "Cyclic peptides P2 and P3 showed inhibition of ADAM8 proteolytic activity"}]}]}
